T1: human B7-H4 on cells (human, UniProt Q7Z7D3 25-282)
T1 sequence (looked up): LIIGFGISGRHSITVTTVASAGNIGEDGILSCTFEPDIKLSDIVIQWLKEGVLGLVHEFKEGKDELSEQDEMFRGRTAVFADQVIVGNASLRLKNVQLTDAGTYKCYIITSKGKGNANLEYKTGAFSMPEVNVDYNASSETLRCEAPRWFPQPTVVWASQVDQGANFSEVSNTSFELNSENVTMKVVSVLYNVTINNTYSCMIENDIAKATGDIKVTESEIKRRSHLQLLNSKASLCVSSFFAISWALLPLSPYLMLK


The binders below were run against T1, human B7-H4 on cells (assay: cell-based or functional assay).

Binder	T cell mediated tumor cell killing EC50, HCC1954-Luc
B7-H4xCD3 bispecific antibody 0998 (bispecific antibody, IgG2) heavy 1: EVQLLESGGGLVQPGGSLRLSCAASGFTFSSYAMSWVRQAPGKGLEWVSAISGGGGSTQYADSVKGRFTISRDNSKNTLYLQMNSLRAEDTAVYYCARDIQWFGESTLFDYWGQGTLVTVSSASTKGPSVFPLAPCSRSTSESTAALGCLVKDYFPEPVTVSWNSGALTSGVHTFPAVLQSSGLYSLSSVVTVPSSNFGTQTYTCNVDHKPSNTKVDKTVERKCEVECPECPAPPVAGPSVFLFPPKPKDTLMISRTPEVTCVVVAVSHEDPEVQFNWYVDGVEVHNAKTKPREEQFNSTFRVVSVLTVVHQDWLNGKEYKCKVSNKGLPSSIEKTISKTKGQPREPQVYTLPPSREEMTKNQVSLTCEVKGFYPSDIAVEWESNGQPENNYKTTPPMLDSDGSFFLYSKLTVDKSRWQQGNVFSCSVMHEALHNHYTQKSLSLSPG light 1: DIQLTQSPSTLSASVGDRVTITCRASQSIRSWLAWFQQKPGKAPKLLIYKASSLEGGVPSRFSGSGSGTEFTLTISSLQPDDFATYYCQQYNSYSRTFGQGTKVEIKRTVAAPSVFIFPPSDEQLKSGTASVVCLLNNFYPREAKVQWKVDNALQSGNSQESVTEQDSKDSTYSLSSTLTLSKADYEKHKVYACEVTHQGLSSPVTKSFNRGEC heavy 2: EVQLVESGGGLVQPGGSLRLSCAASGFTFSDYYMTWVRQAPGKGLEWVAFIRNQARGYTSDHNPSVKGRFTISRDNAKNSLYLQMNSLRAEDTAVYYCARDRPSYYVLDYWGQGTTVTVSSASTKGPSVFPLAPCSRSTSESTAALGCLVKDYFPEPVTVSWNSGALTSGVHTFPAVLQSSGLYSLSSVVTVPSSNFGTQTYTCNVDHKPSNTKVDKTVERKCRVRCPRCPAPPVAGPSVFLFPPKPKDTLMISRTPEVTCVVVAVSHEDPEVQFNWYVDGVEVHNAKTKPREEQFNSTFRVVSVLTVVHQDWLNGKEYKCKVSNKGLPSSIEKTISKTKGQPREPQVYTLPPSREEMTKNQVSLTCLVKGFYPSDIAVEWESNGQPENNYKTTPPMLDSDGSFFLYSRLTVDKSRWQQGNVFSCSVMHEALHNHYTQKSLSLSPGK light 2: DIQMTQSPSSLSASVGDRVTITCTSSQSLFNVRSQKNYLAWYQQKPGKAPKLLIYWASTRESGVPSRFSGSGSGTDFTLTISSLQPEDFATYYCKQSYDLFTFGGGTKVEIKRTVAAPSVFIFPPSDEQLKSGTASVVCLLNNFYPREAKVQWKVDNALQSGNSQESVTEQDSKDSTYSLSSTLTLSKADYEKHKVYACEVTHQGLSSPVTKSFNRGEC	410 nM
B7-H4xCD3 bispecific antibody 1000 (bispecific antibody, IgG2) heavy 1: EVQLLESGGGLVQPGGSLRLSCAASGFTFSSYAMSWVRQAPGKGLEWVSAISGGGGSTYYADSVKGRFTISRDNSKNTLYLQMNSLRAEDTAVYYCARDIQWHGESTLFDYWGQGTLVTVSSASTKGPSVFPLAPCSRSTSESTAALGCLVKDYFPEPVTVSWNSGALTSGVHTFPAVLQSSGLYSLSSVVTVPSSNFGTQTYTCNVDHKPSNTKVDKTVERKCEVECPECPAPPVAGPSVFLFPPKPKDTLMISRTPEVTCVVVAVSHEDPEVQFNWYVDGVEVHNAKTKPREEQFNSTFRVVSVLTVVHQDWLNGKEYKCKVSNKGLPSSIEKTISKTKGQPREPQVYTLPPSREEMTKNQVSLTCEVKGFYPSDIAVEWESNGQPENNYKTTPPMLDSDGSFFLYSKLTVDKSRWQQGNVFSCSVMHEALHNHYTQKSLSLSPG light 1: DIQLTQSPSTLSASVGDRVTITCRASQSIRSWLAWFQQKPGKAPKLLIYKASSLEGGVPSRFSGSGSGTEFTLTISSLQPDDFATYYCQQYNSYSRTFGQGTKVEIKRTVAAPSVFIFPPSDEQLKSGTASVVCLLNNFYPREAKVQWKVDNALQSGNSQESVTEQDSKDSTYSLSSTLTLSKADYEKHKVYACEVTHQGLSSPVTKSFNRGEC heavy 2: EVQLVESGGGLVQPGGSLRLSCAASGFTFSDYYMTWVRQAPGKGLEWVAFIRNQARGYTSDHNPSVKGRFTISRDNAKNSLYLQMNSLRAEDTAVYYCARDRPSYYVLDYWGQGTTVTVSSASTKGPSVFPLAPCSRSTSESTAALGCLVKDYFPEPVTVSWNSGALTSGVHTFPAVLQSSGLYSLSSVVTVPSSNFGTQTYTCNVDHKPSNTKVDKTVERKCRVRCPRCPAPPVAGPSVFLFPPKPKDTLMISRTPEVTCVVVAVSHEDPEVQFNWYVDGVEVHNAKTKPREEQFNSTFRVVSVLTVVHQDWLNGKEYKCKVSNKGLPSSIEKTISKTKGQPREPQVYTLPPSREEMTKNQVSLTCLVKGFYPSDIAVEWESNGQPENNYKTTPPMLDSDGSFFLYSRLTVDKSRWQQGNVFSCSVMHEALHNHYTQKSLSLSPGK light 2: DIQMTQSPSSLSASVGDRVTITCTSSQSLFNVRSQKNYLAWYQQKPGKAPKLLIYWASTRESGVPSRFSGSGSGTDFTLTISSLQPEDFATYYCKQSYDLFTFGGGTKVEIKRTVAAPSVFIFPPSDEQLKSGTASVVCLLNNFYPREAKVQWKVDNALQSGNSQESVTEQDSKDSTYSLSSTLTLSKADYEKHKVYACEVTHQGLSSPVTKSFNRGEC	100 nM
B7-H4xCD3 bispecific antibody 1001 (bispecific antibody, IgG2) heavy 1: EVQLLESGGGLVQPGGSLRLSCAASGFTFSSYAMSWVRQAPGKGLEWVSAISGGGGSTYYADSVKGRFTISRDNSKNTLYLQMNSLRAEDTAVYYCARDIQWFGRSTLFDYWGQGTLVTVSSASTKGPSVFPLAPCSRSTSESTAALGCLVKDYFPEPVTVSWNSGALTSGVHTFPAVLQSSGLYSLSSVVTVPSSNFGTQTYTCNVDHKPSNTKVDKTVERKCEVECPECPAPPVAGPSVFLFPPKPKDTLMISRTPEVTCVVVAVSHEDPEVQFNWYVDGVEVHNAKTKPREEQFNSTFRVVSVLTVVHQDWLNGKEYKCKVSNKGLPSSIEKTISKTKGQPREPQVYTLPPSREEMTKNQVSLTCEVKGFYPSDIAVEWESNGQPENNYKTTPPMLDSDGSFFLYSKLTVDKSRWQQGNVFSCSVMHEALHNHYTQKSLSLSPG light 1: DIQLTQSPSTLSASVGDRVTITCRASQSIRSWLAWFQQKPGKAPKLLIYKASSLEGGVPSRFSGSGSGTEFTLTISSLQPDDFATYYCQQYNSYSRTFGQGTKVEIKRTVAAPSVFIFPPSDEQLKSGTASVVCLLNNFYPREAKVQWKVDNALQSGNSQESVTEQDSKDSTYSLSSTLTLSKADYEKHKVYACEVTHQGLSSPVTKSFNRGEC heavy 2: EVQLVESGGGLVQPGGSLRLSCAASGFTFSDYYMTWVRQAPGKGLEWVAFIRNQARGYTSDHNPSVKGRFTISRDNAKNSLYLQMNSLRAEDTAVYYCARDRPSYYVLDYWGQGTTVTVSSASTKGPSVFPLAPCSRSTSESTAALGCLVKDYFPEPVTVSWNSGALTSGVHTFPAVLQSSGLYSLSSVVTVPSSNFGTQTYTCNVDHKPSNTKVDKTVERKCRVRCPRCPAPPVAGPSVFLFPPKPKDTLMISRTPEVTCVVVAVSHEDPEVQFNWYVDGVEVHNAKTKPREEQFNSTFRVVSVLTVVHQDWLNGKEYKCKVSNKGLPSSIEKTISKTKGQPREPQVYTLPPSREEMTKNQVSLTCLVKGFYPSDIAVEWESNGQPENNYKTTPPMLDSDGSFFLYSRLTVDKSRWQQGNVFSCSVMHEALHNHYTQKSLSLSPGK light 2: DIQMTQSPSSLSASVGDRVTITCTSSQSLFNVRSQKNYLAWYQQKPGKAPKLLIYWASTRESGVPSRFSGSGSGTDFTLTISSLQPEDFATYYCKQSYDLFTFGGGTKVEIKRTVAAPSVFIFPPSDEQLKSGTASVVCLLNNFYPREAKVQWKVDNALQSGNSQESVTEQDSKDSTYSLSSTLTLSKADYEKHKVYACEVTHQGLSSPVTKSFNRGEC	10 nM
B7-H4xCD3 bispecific antibody 1003 (bispecific antibody, IgG2) heavy 1: EVQLLESGGGLVQPGGSLRLSCAASGFTFSSYAMSWVRQAPGKGLEWVSAISGGGGSTYYADSVKGRFTISRDNSKNTLYLQMNSLRAEDTAVYYCARDIQWFGESTLFDYWGQGTLVTVSSASTKGPSVFPLAPCSRSTSESTAALGCLVKDYFPEPVTVSWNSGALTSGVHTFPAVLQSSGLYSLSSVVTVPSSNFGTQTYTCNVDHKPSNTKVDKTVERKCEVECPECPAPPVAGPSVFLFPPKPKDTLMISRTPEVTCVVVAVSHEDPEVQFNWYVDGVEVHNAKTKPREEQFNSTFRVVSVLTVVHQDWLNGKEYKCKVSNKGLPSSIEKTISKTKGQPREPQVYTLPPSREEMTKNQVSLTCEVKGFYPSDIAVEWESNGQPENNYKTTPPMLDSDGSFFLYSKLTVDKSRWQQGNVFSCSVMHEALHNHYTQKSLSLSPG light 1: DIQMTQSPSSLSASVGDRVTITCRASQSTRSHLAWYQQKPGKAPKLLIYKASSLEGGVPSRFSGSGSGTDFTLTISSLQPEDFATYYCQQYGSYSRTFGQGTKVEIKRTVAAPSVFIFPPSDEQLKSGTASVVCLLNNFYPREAKVQWKVDNALQSGNSQESVTEQDSKDSTYSLSSTLTLSKADYEKHKVYACEVTHQGLSSPVTKSFNRGEC heavy 2: EVQLVESGGGLVQPGGSLRLSCAASGFTFSDYYMTWVRQAPGKGLEWVAFIRNQARGYTSDHNPSVKGRFTISRDNAKNSLYLQMNSLRAEDTAVYYCARDRPSYYVLDYWGQGTTVTVSSASTKGPSVFPLAPCSRSTSESTAALGCLVKDYFPEPVTVSWNSGALTSGVHTFPAVLQSSGLYSLSSVVTVPSSNFGTQTYTCNVDHKPSNTKVDKTVERKCRVRCPRCPAPPVAGPSVFLFPPKPKDTLMISRTPEVTCVVVAVSHEDPEVQFNWYVDGVEVHNAKTKPREEQFNSTFRVVSVLTVVHQDWLNGKEYKCKVSNKGLPSSIEKTISKTKGQPREPQVYTLPPSREEMTKNQVSLTCLVKGFYPSDIAVEWESNGQPENNYKTTPPMLDSDGSFFLYSRLTVDKSRWQQGNVFSCSVMHEALHNHYTQKSLSLSPGK light 2: DIQMTQSPSSLSASVGDRVTITCTSSQSLFNVRSQKNYLAWYQQKPGKAPKLLIYWASTRESGVPSRFSGSGSGTDFTLTISSLQPEDFATYYCKQSYDLFTFGGGTKVEIKRTVAAPSVFIFPPSDEQLKSGTASVVCLLNNFYPREAKVQWKVDNALQSGNSQESVTEQDSKDSTYSLSSTLTLSKADYEKHKVYACEVTHQGLSSPVTKSFNRGEC	100 nM

From patent publication US20220017622A1 (Pfizer, published 2022)
